Measured values published in the Human Domainome abundance scans (Beltran et al. 2025).
± gives the uncertainty stated by the source.

B1: Formin-binding protein 4, residues 200 to 261; numbered along this chain, Q8N3X1 (parent)
chain: SGWQYDTQCSLAGVGIEMGDWQEVWDENTGCYYYWNTQTNEVTWELPQYLATQVQGLQHYQP

Variants of: B1
Test: abundance fitness (aPCA) (normalised: wild type 0, dead -1); higher = more abundant; growth selection in yeast, the domain comes from the species named
Conditions: Homo sapiens
In the case of T39W, the abundance fitness is reported as -0.568 ± 0.094.
Variant T39L has an abundance fitness of -0.461 ± 0.066.
T39G gave an abundance fitness of -0.362 ± 0.097.
T39C gave an abundance fitness of -0.307 ± 0.094.
In the case of D26S, the abundance fitness is reported as -0.007 ± 0.061.
Variant D26T has an abundance fitness of -0.178 ± 0.093.
D26Y showed an abundance fitness of -0.322 ± 0.12.
Work on D26V yielded an abundance fitness of -0.384 ± 0.067.
Variant D26M has an abundance fitness of -0.09 ± 0.088.
Variant D26K has an abundance fitness of -0.345 ± 0.12.
D26R gave an abundance fitness of -0.515 ± 0.078.
D26N showed an abundance fitness of -0.084 ± 0.12.
D26A showed an abundance fitness of -0.176 ± 0.066.
Variant D26I has an abundance fitness of -0.593 ± 0.13.
D26E gave an abundance fitness of -0.148 ± 0.077.
D26Q showed an abundance fitness of -0.181 ± 0.097.
Variant D26L has an abundance fitness of -0.5 ± 0.072.
In the case of D26P, the abundance fitness is reported as -1.14 ± 0.19.
For D26C, the abundance fitness was -0.228 ± 0.095.
Work on D26F yielded an abundance fitness of -0.296 ± 0.12.
D26W gave an abundance fitness of -0.256 ± 0.092.
Work on D26G yielded an abundance fitness of -0.373 ± 0.068.
In the case of T29S, the abundance fitness is reported as 0.123 ± 0.074.
With T29G the abundance fitness was -0.147 ± 0.056.
T29A showed an abundance fitness of 0.162 ± 0.065.
With T29M the abundance fitness was -0.1 ± 0.11.
In the case of T29F, the abundance fitness is reported as -0.074 ± 0.19.
For T29K, the abundance fitness was 0.311 ± 0.073.
With T29I the abundance fitness was -0.382 ± 0.14.
Work on T29C yielded an abundance fitness of -0.066 ± 0.13.
With T29P the abundance fitness was -0.172 ± 0.11.
In the case of T29N, the abundance fitness is reported as -0.086 ± 0.16.
With T29W the abundance fitness was -0.362 ± 0.075.
With T29H the abundance fitness was -0.017 ± 0.16.
Work on T29R yielded an abundance fitness of 0.117 ± 0.054.
Work on T29Y yielded an abundance fitness of 0.019 ± 0.15.
T29L showed an abundance fitness of -0.036 ± 0.067.
In the case of T29Q, the abundance fitness is reported as -0.125 ± 0.093.
For N40G, the abundance fitness was -0.037 ± 0.062.
N40V gave an abundance fitness of -0.556 ± 0.081.
With N40A the abundance fitness was -0.08 ± 0.07.
In the case of N40Q, the abundance fitness is reported as -0.056 ± 0.082.
Work on N40T yielded an abundance fitness of -0.096 ± 0.097.
N40S gave an abundance fitness of -0.057 ± 0.063.
Variant N40H has an abundance fitness of -0.032 ± 0.11.
For N40Y, the abundance fitness was -0.564 ± 0.17.
With N40W the abundance fitness was -0.34 ± 0.082.
Work on N40R yielded an abundance fitness of -0.157 ± 0.06.
For N40E, the abundance fitness was -0.04 ± 0.075.
With N40M the abundance fitness was -0.298 ± 0.091.
N40P showed an abundance fitness of -0.931 ± 0.15.
In the case of N40F, the abundance fitness is reported as -0.37 ± 0.12.
N40I gave an abundance fitness of -0.607 ± 0.19.
With N40C the abundance fitness was -0.505 ± 0.13.
Work on Y34H yielded an abundance fitness of -0.873 ± 0.34.
Y34S gave an abundance fitness of -0.862 ± 0.11.
Y34Q gave an abundance fitness of -0.946 ± 0.15.
For Y34G, the abundance fitness was -0.664 ± 0.084.
For Y34K, the abundance fitness was -0.726 ± 0.17.
Work on Y34L yielded an abundance fitness of -0.796 ± 0.088.
With Y34C the abundance fitness was -0.927 ± 0.22.
Y34P gave an abundance fitness of -1.21 ± 0.22.
For Y34A, the abundance fitness was -0.866 ± 0.11.
Variant Y34W has an abundance fitness of -0.449 ± 0.082.
In the case of Y34E, the abundance fitness is reported as -0.791 ± 0.13.
With Y34T the abundance fitness was -0.847 ± 0.14.
Variant Y34F has an abundance fitness of -0.18 ± 0.11.
Variant Y34D has an abundance fitness of -1 ± 0.23.
Y34M showed an abundance fitness of -0.962 ± 0.14.
With Y34V the abundance fitness was -0.669 ± 0.083.
W25S showed an abundance fitness of -0.294 ± 0.083.
For W25L, the abundance fitness was -0.119 ± 0.071.
With W25R the abundance fitness was -0.287 ± 0.075.
In the case of W25M, the abundance fitness is reported as -0.129 ± 0.11.
For W25V, the abundance fitness was -0.358 ± 0.09.
With W25I the abundance fitness was -0.251 ± 0.24.
W25T showed an abundance fitness of -0.381 ± 0.11.
With W25Y the abundance fitness was -0.209 ± 0.17.
Variant W25N has an abundance fitness of -0.853 ± 0.23.
In the case of W25K, the abundance fitness is reported as -0.014 ± 0.098.
W25P showed an abundance fitness of -0.376 ± 0.14.
For G30H, the abundance fitness was -0.718 ± 0.24.
For G30Y, the abundance fitness was -0.473 ± 0.21.
In the case of G30S, the abundance fitness is reported as 0.006 ± 0.088.
Variant G30N has an abundance fitness of -0.15 ± 0.16.
For G30P, the abundance fitness was -0.219 ± 0.13.
G30F gave an abundance fitness of -0.381 ± 0.12.
With G30W the abundance fitness was -0.23 ± 0.08.
G30R showed an abundance fitness of 0.078 ± 0.053.
G30L showed an abundance fitness of -0.4 ± 0.082.
G30A showed an abundance fitness of -0.095 ± 0.063.
With G30Q the abundance fitness was 0.049 ± 0.086.
For G30V, the abundance fitness was -0.191 ± 0.057.
G30I showed an abundance fitness of 0.052 ± 0.16.
With G30K the abundance fitness was 0.129 ± 0.093.
Variant N36W has an abundance fitness of -0.814 ± 0.11.
Work on N36T yielded an abundance fitness of -0.993 ± 0.14.
Work on N36D yielded an abundance fitness of -0.612 ± 0.17.
N36V gave an abundance fitness of -1.02 ± 0.16.
In the case of N36K, the abundance fitness is reported as -0.663 ± 0.13.
N36Y gave an abundance fitness of -0.961 ± 0.29.
N36E gave an abundance fitness of -0.287 ± 0.11.
Variant N36G has an abundance fitness of -0.64 ± 0.098.
In the case of N36A, the abundance fitness is reported as -0.645 ± 0.12.
With N36L the abundance fitness was -0.861 ± 0.094.
For N36C, the abundance fitness was -0.236 ± 0.11.
N36I showed an abundance fitness of -1.13 ± 0.31.
Variant N36M has an abundance fitness of -0.603 ± 0.12.
For N36Q, the abundance fitness was -0.121 ± 0.1.
N36P showed an abundance fitness of -0.897 ± 0.15.
With N36F the abundance fitness was -0.744 ± 0.16.
In the case of N36S, the abundance fitness is reported as -0.553 ± 0.084.
N36R gave an abundance fitness of -0.657 ± 0.081.
For Q38I, the abundance fitness was -0.086 ± 0.14.
For Q38N, the abundance fitness was -0.266 ± 0.25.
Q38R gave an abundance fitness of 0.042 ± 0.064.
Q38D gave an abundance fitness of 0.247 ± 0.16.
With Q38E the abundance fitness was -0.081 ± 0.08.
Variant Q38V has an abundance fitness of -0.126 ± 0.074.
Q38S showed an abundance fitness of -0.019 ± 0.069.
Q38M showed an abundance fitness of -0.11 ± 0.092.
In the case of Q38H, the abundance fitness is reported as -0.022 ± 0.25.
Variant Q38W has an abundance fitness of -0.216 ± 0.088.
With Q38L the abundance fitness was -0.133 ± 0.063.
Work on Q38G yielded an abundance fitness of -0.077 ± 0.064.
Work on Q38P yielded an abundance fitness of -0.541 ± 0.14.
Variant Q38F has an abundance fitness of -0.346 ± 0.17.
Q38T gave an abundance fitness of 0.254 ± 0.082.
Work on Q38Y yielded an abundance fitness of 0.128 ± 0.26.
Q38K showed an abundance fitness of 0.138 ± 0.11.
E41F showed an abundance fitness of -0.556 ± 0.14.
For E41K, the abundance fitness was -0.081 ± 0.092.
Variant E41L has an abundance fitness of -0.111 ± 0.059.
For E41H, the abundance fitness was -0.472 ± 0.2.
Work on E41Q yielded an abundance fitness of 0.014 ± 0.076.
E41D showed an abundance fitness of -0.268 ± 0.19.
Work on E41I yielded an abundance fitness of -0.324 ± 0.17.
Variant E41N has an abundance fitness of -0.364 ± 0.18.
E41V gave an abundance fitness of -0.323 ± 0.09.
E41R showed an abundance fitness of -0.158 ± 0.078.
Work on E41P yielded an abundance fitness of -0.776 ± 0.12.
In the case of E41G, the abundance fitness is reported as -0.471 ± 0.1.
E41S gave an abundance fitness of -0.349 ± 0.082.
E41A gave an abundance fitness of -0.109 ± 0.086.
E41C gave an abundance fitness of -0.409 ± 0.15.
Variant E41M has an abundance fitness of -0.34 ± 0.098.
In the case of E41Y, the abundance fitness is reported as -0.231 ± 0.13.
Variant E41W has an abundance fitness of -0.378 ± 0.11.
For E41T, the abundance fitness was -0.283 ± 0.084.
With Y32W the abundance fitness was -0.543 ± 0.11.
Work on Y32T yielded an abundance fitness of -0.773 ± 0.11.
With Y32E the abundance fitness was -0.673 ± 0.091.
For Y32N, the abundance fitness was -0.487 ± 0.16.
Y32V showed an abundance fitness of -0.677 ± 0.077.
In the case of Y32Q, the abundance fitness is reported as -0.818 ± 0.16.
Y32F gave an abundance fitness of -0.009 ± 0.1.
Y32L showed an abundance fitness of -0.633 ± 0.071.
In the case of Y32R, the abundance fitness is reported as -0.792 ± 0.1.
With Y32K the abundance fitness was -1.02 ± 0.18.
Work on Y32C yielded an abundance fitness of -0.478 ± 0.15.
Variant Y32M has an abundance fitness of -0.511 ± 0.097.
Variant Y32H has an abundance fitness of -0.16 ± 0.14.
Work on Y32A yielded an abundance fitness of -0.502 ± 0.079.
Y32S showed an abundance fitness of -0.567 ± 0.089.
With Y32G the abundance fitness was -0.678 ± 0.081.
With Y32I the abundance fitness was -0.3 ± 0.13.
In the case of Y32P, the abundance fitness is reported as -0.417 ± 0.11.
